From patent publication US20240352105A1, “COMPOSITIONS AND METHODS FOR NEUTRALIZING ANTIGENS” (PACAGEN, INC, priority 2023, published 2024)
“And” between values parts separate entries of the source, which are not always exact repeats. Identical values can stand only once.

How the values were obtained:
[1] = target: T1, recombinant His-tagged Der p2 (dust mite, UniProt P49278 18-146); assay: serum ELISA, 1:8K, Alpaca 1 block
T1 construct: also called Der p2-His; Der p2-HIS; not shown: His tag
T1 sequence (looked up): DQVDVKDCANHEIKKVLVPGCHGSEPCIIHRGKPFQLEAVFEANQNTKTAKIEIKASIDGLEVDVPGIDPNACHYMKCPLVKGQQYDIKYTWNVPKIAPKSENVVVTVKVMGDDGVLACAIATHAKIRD

[2] = target: recombinant His-tagged Can f2 (dog (Canis familiaris)) (UniProt O18874); assay: serum ELISA, 1:8K, Alpaca 1 block
[3] = target: Can f2-sumo-His (dog (Canis familiaris)) (UniProt O18874); assay: serum ELISA, 1:8K, Alpaca 1 block
[4] = target: recombinant His-tagged Can f1 (dog (Canis familiaris)) (UniProt O18873); assay: serum ELISA, 1:8K, Alpaca 1 block
[5] = target: T1, recombinant His-tagged Der p2; assay: serum ELISA, 1:32k, Alpaca 2 block
[6] = target: recombinant His-tagged Can f2 (dog (Canis familiaris)) (UniProt O18874); assay: serum ELISA, 1:32k, Alpaca 2 block
[7] = target: Can f2-sumo-His (dog (Canis familiaris)) (UniProt O18874); assay: serum ELISA, 1:32k, Alpaca 2 block
[8] = target: recombinant His-tagged Can f1 (dog (Canis familiaris)) (UniProt O18873); assay: serum ELISA, 1:32k, Alpaca 2 block
[9] = target: T1, recombinant His-tagged Der p2; assay: serum ELISA, 1:4k, Alpaca 2 block
[10] = target: recombinant His-tagged Can f2 (dog (Canis familiaris)) (UniProt O18874); assay: serum ELISA, 1:4k, Alpaca 2 block
[11] = target: Can f2-sumo-His (dog (Canis familiaris)) (UniProt O18874); assay: serum ELISA, 1:4k, Alpaca 2 block
[12] = target: recombinant His-tagged Can f1 (dog (Canis familiaris)) (UniProt O18873); assay: serum ELISA, 1:4k, Alpaca 2 block
[13] = target: T1, recombinant His-tagged Der p2; assay: serum ELISA, 1:16K, Alpaca 2 block
[14] = target: recombinant His-tagged Can f2 (dog (Canis familiaris)) (UniProt O18874); assay: serum ELISA, 1:16K, Alpaca 2 block
[15] = target: Can f2-sumo-His (dog (Canis familiaris)) (UniProt O18874); assay: serum ELISA, 1:16K, Alpaca 2 block
[16] = target: recombinant His-tagged Can f1 (dog (Canis familiaris)) (UniProt O18873); assay: serum ELISA, 1:16K, Alpaca 2 block
[17] = target: T1, recombinant His-tagged Der p2; assay: serum ELISA, 1:8K, Alpaca 2 block
[18] = target: recombinant His-tagged Can f2 (dog (Canis familiaris)) (UniProt O18874); assay: serum ELISA, 1:8K, Alpaca 2 block
[19] = target: Can f2-sumo-His (dog (Canis familiaris)) (UniProt O18874); assay: serum ELISA, 1:8K, Alpaca 2 block
[20] = target: recombinant His-tagged Can f1 (dog (Canis familiaris)) (UniProt O18873); assay: serum ELISA, 1:8K, Alpaca 2 block
[21] = target: T1, recombinant His-tagged Der p2; assay: serum ELISA, 1:2K, Alpaca 2 block
[22] = target: recombinant His-tagged Can f2 (dog (Canis familiaris)) (UniProt O18874); assay: serum ELISA, 1:2K, Alpaca 2 block
[23] = target: Can f2-sumo-His (dog (Canis familiaris)) (UniProt O18874); assay: serum ELISA, 1:2K, Alpaca 2 block
[24] = target: recombinant His-tagged Can f1 (dog (Canis familiaris)) (UniProt O18873); assay: serum ELISA, 1:2K, Alpaca 2 block
[25] = target: T1, recombinant His-tagged Der p2; assay: serum ELISA, 1:64K, Alpaca 1 block
[26] = target: recombinant His-tagged Can f2 (dog (Canis familiaris)) (UniProt O18874); assay: serum ELISA, 1:64K, Alpaca 1 block
[27] = target: Can f2-sumo-His (dog (Canis familiaris)) (UniProt O18874); assay: serum ELISA, 1:64K, Alpaca 1 block
[28] = target: recombinant His-tagged Can f1 (dog (Canis familiaris)) (UniProt O18873); assay: serum ELISA, 1:64K, Alpaca 1 block
[29] = target: Can f2-sumo-His (dog (Canis familiaris)) (UniProt O18874); assay: serum ELISA, 1:1K, Alpaca 1 block
[30] = target: T1, recombinant His-tagged Der p2; assay: serum ELISA, 1:16K, Alpaca 1 block
[31] = target: recombinant His-tagged Can f2 (dog (Canis familiaris)) (UniProt O18874); assay: serum ELISA, 1:16K, Alpaca 1 block
[32] = target: Can f2-sumo-His (dog (Canis familiaris)) (UniProt O18874); assay: serum ELISA, 1:16K, Alpaca 1 block
[33] = target: recombinant His-tagged Can f1 (dog (Canis familiaris)) (UniProt O18873); assay: serum ELISA, 1:16K, Alpaca 1 block
[34] = target: T1, recombinant His-tagged Der p2; assay: serum ELISA, 1:32k, Alpaca 1 block
[35] = target: recombinant His-tagged Can f2 (dog (Canis familiaris)) (UniProt O18874); assay: serum ELISA, 1:32k, Alpaca 1 block
[36] = target: Can f2-sumo-His (dog (Canis familiaris)) (UniProt O18874); assay: serum ELISA, 1:32k, Alpaca 1 block
[37] = target: recombinant His-tagged Can f1 (dog (Canis familiaris)) (UniProt O18873); assay: serum ELISA, 1:32k, Alpaca 1 block

Chain of recombinant His-tagged Can f1 (dog (Canis familiaris)) (O18873 19-174 limits assumed): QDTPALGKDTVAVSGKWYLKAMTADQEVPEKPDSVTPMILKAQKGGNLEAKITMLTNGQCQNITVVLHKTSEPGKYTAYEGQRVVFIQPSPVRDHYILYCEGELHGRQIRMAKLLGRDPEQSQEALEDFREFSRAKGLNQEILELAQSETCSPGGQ
Chain of Can f2-sumo-His (dog (Canis familiaris)) (O18874 19-180): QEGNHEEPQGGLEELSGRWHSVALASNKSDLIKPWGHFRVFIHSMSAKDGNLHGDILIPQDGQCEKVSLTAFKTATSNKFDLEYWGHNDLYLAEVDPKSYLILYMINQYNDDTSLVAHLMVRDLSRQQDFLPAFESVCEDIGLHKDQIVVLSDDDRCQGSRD
Chain of recombinant His-tagged Can f2 (dog (Canis familiaris)) (O18874 19-180 limits assumed): as the sequence (O18874 19-180) above

Negative serum taken from naïve alpacas was tested, and the OD at 450 nm [1] was 0.104 OD and 0.099 OD, the OD at 450 nm [2] was 0.076 OD and the OD at 450 nm [3] was 0.072 OD. For the same substance, the OD at 450 nm [4] was 0.116 OD and 0.117 OD, the OD at 450 nm [5] was 0.082 OD and the OD at 450 nm [6] was 0.075 OD and 0.068 OD. The OD at 450 nm [7] was 0.071 OD and 0.061 OD, the OD at 450 nm [8] was 0.091 OD and 0.093 OD and the OD at 450 nm [9] was 0.113 OD. The OD at 450 nm [10] was 0.108 OD and 0.101 OD, the OD at 450 nm [11] was 0.09 OD and 0.081 OD and the OD at 450 nm [12] was 0.122 OD. The OD at 450 nm [13] was 0.091 OD and 0.089 OD, the OD at 450 nm [14] was 0.08 OD and 0.075 OD and the OD at 450 nm [15] was 0.074 OD and 0.081 OD. The OD at 450 nm [16] was 0.101 OD and 0.098 OD, the OD at 450 nm [17] was 0.101 OD and 0.103 OD and the OD at 450 nm [18] was 0.099 OD and 0.084 OD. For the same substance, the OD at 450 nm [19] was 0.083 OD and 0.079 OD, the OD at 450 nm [20] was 0.108 OD and 0.111 OD and the OD at 450 nm [21] was 0.152 OD and 0.15 OD. The OD at 450 nm [22] was 0.143 OD and 0.133 OD, the OD at 450 nm [23] was 0.119 OD and 0.113 OD and the OD at 450 nm [24] was 0.185 OD and 0.179 OD. For the same substance, the OD at 450 nm [25] was 0.085 OD and 0.081 OD, the OD at 450 nm [26] was 0.064 OD and 0.069 OD and the OD at 450 nm [27] was 0.057 OD and 0.058 OD. For the same substance, the OD at 450 nm [28] was 0.103 OD, the OD at 450 nm [29] was 0.119 OD and 0.111 OD and the OD at 450 nm [30] was 0.099 OD and 0.093 OD. The OD at 450 nm [31] was 0.075 OD and 0.076 OD, the OD at 450 nm [32] was 0.071 OD and the OD at 450 nm [33] was 0.101 OD and 0.11 OD. The OD at 450 nm [34] was 0.099 OD and 0.081 OD, the OD at 450 nm [35] was 0.069 OD and 0.062 OD and the OD at 450 nm [36] was 0.056 OD and 0.057 OD. For the same substance, the OD at 450 nm [37] was 0.102 OD and 0.107 OD.
